Measurements as given in patent US20140235701, “NGF APTAMER AND APPLICATION THEREOF” (RIBOMIC INC., published 2014).

Legend:
Details in all cases: tags: R&D Systems; chain copies: 2
[1] = biological target: T1, NGF (nerve growth factor) (Homo sapiens, UniProt P01138 P01138:122-241); test: cell_activity; neurite; TF-1 0.097
Description: (§1) With the neurite length per cell obtained by the addition of NGF alone as inhibitory activity 0%, and that of the cell obtained by NGF free culture for 2 days as inhibitory activity 100%, the inhibitory activity of the aptamer was calculated from the neurite length per cell obtained by culturing with the addition of NGF and the aptamer in mixture.
(§2) Two NGF receptor (human TrkA and human p75) genes were introduced into TF-1 cells (ATCC Number: CRL-2003), which is a human erythroleukemic cell line, by using a retrovirus vector to give cells that highly express two receptors simultaneously and stably. The cells were suspended in an RPMI-1640 medium containing 20% fetal bovine serum, and seeded in a white 96 well flat-bottom plate at 1000 cells (50 μL) per well. […] With the amount of luminescence per well obtained by the addition of NGF alone and culture of the cells for 3 days as inhibitory activity 0%, and that of the well obtained by NGF free culture for 3 days as inhibitory activity 100%, the inhibitory activity of the aptamer was calculated from the amount of luminescence per well obtained by culturing with the addition of NGF and the aptamer in mixture.

[2] = biological target: T1, NGF (nerve growth factor); test: cell_activity; neurite; TF-1 0.073
[3] = biological target: T1, NGF (nerve growth factor); test: cell_activity; neurite; TF-1 0.311
Description: as §1, §2

[4] = biological target: T1, NGF (nerve growth factor); test: cell_activity; neurite; TF-1 0.081
[5] = biological target: T1, NGF (nerve growth factor); test: cell_activity; neurite; TF-1 0.363
[6] = biological target: T1, NGF (nerve growth factor); test: cell_activity; neurite; TF-1 0.047
[7] = biological target: T1, NGF (nerve growth factor); test: cell_activity; neurite; TF-1 0.024
[8] = biological target: T1, NGF (nerve growth factor); test: cell_activity; neurite; TF-1 0.042
[9] = biological target: T1, NGF (nerve growth factor); test: cell_activity; neurite; TF-1 0.056
[10] = biological target: T1, NGF (nerve growth factor); test: cell_activity; neurite; TF-1 0.048
[11] = biological target: T1, NGF (nerve growth factor); test: cell_activity; neurite; TF-1 0.015
[12] = biological target: T1, NGF (nerve growth factor); test: cell_activity; neurite; TF-1 0.266
[13] = biological target: T1, NGF (nerve growth factor); test: cell_activity; neurite; TF-1 0.016
[14] = biological target: T1, NGF (nerve growth factor); test: cell_activity; neurite; TF-1 0.039
Description: as §1, §2

NT-3 (neurotrophin-3) = biological target: T2, NT-3 (neurotrophin-3) (Homo sapiens, UniProt P20783 P20783:139-257); test: SPR; scarcely bound
T2 sequence: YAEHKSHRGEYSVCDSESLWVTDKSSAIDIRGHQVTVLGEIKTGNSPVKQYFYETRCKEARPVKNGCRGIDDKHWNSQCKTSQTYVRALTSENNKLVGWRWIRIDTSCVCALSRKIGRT
Description: (§3) The binding activity of these shortened forms to NGF and NT-3 was measured by the surface plasmon resonance method. For the measurement method, BIAcore2000 manufactured by BIAcore was used and CM5 reactive with amino group was used as a sensorchip, as shown in Example 1. The protein was immobilized in the same manner as in Example 1 by using ethyl-3-carbodiimide hydrochloride and N-hydroxysuccinimide. […] After protein immobilization, blocking with ethanolamine-HCl was performed. The amount of immobilized NGF and NT-3 was 3,000-4,000 RU and 3,000-5,000 RU, respectively. The aptamer for an analyte was prepared to 0.15 μM-0.5 μM. The running buffer and regeneration solution were the same as those in Example 1. NT-3 was immobilized on FC2, and NGF on FC3, and the final sensorgram was obtained by subtracting the results of FC1.
(§4) Then, the aptamers were subjected to shortening to 40 mer in the same manner as with consensus secondary structure 1. […] NT-4 was measured in the same manner as in NT-3.
(§5) The shortened sequences were measured for the binding to NGF, NT-3, NT-4 by the surface plasmon resonance method. The measurement was performed in the same manner as in Example 13.

NT-4 (neurotrophin-4) = biological target: T3, NT-4 (neurotrophin-4) (Homo sapiens, UniProt P34130 P34130:81-210); test: SPR; scarcely bound
T3 sequence: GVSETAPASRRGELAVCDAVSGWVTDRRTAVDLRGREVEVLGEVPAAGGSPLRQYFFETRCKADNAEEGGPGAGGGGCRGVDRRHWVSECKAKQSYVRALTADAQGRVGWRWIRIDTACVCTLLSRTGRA
Description: as §3, §4, §5

[15] = biological target: T1, NGF (nerve growth factor); test: cell_activity; neurite; TF-1 0.183
[16] = biological target: T1, NGF (nerve growth factor); test: cell_activity; TF-1 proliferation
Description: as §2

[17] = biological target: T1, NGF (nerve growth factor); test: cell_activity; neurite; TF-1 >10
[18] = biological target: T1, NGF (nerve growth factor); test: cell_activity; neurite; TF-1 0.193
[19] = biological target: T1, NGF (nerve growth factor); test: cell_activity; neurite; TF-1 0.296
[20] = biological target: T1, NGF (nerve growth factor); test: cell_activity; neurite; TF-1 0.455
[21] = biological target: T1, NGF (nerve growth factor); test: cell_activity; neurite; TF-1 0.322

T1 sequence (P01138 122-241, one chain of several): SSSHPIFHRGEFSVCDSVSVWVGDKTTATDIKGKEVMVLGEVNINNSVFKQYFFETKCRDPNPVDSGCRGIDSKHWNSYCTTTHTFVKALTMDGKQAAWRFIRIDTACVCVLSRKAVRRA

Binder: GGGUCCUGGAUAAGAGUUUCCGUCUCGUAUCCUGUUACCC (ssRNA, as 82(25) except dU7) [SEQ ID NO: 82(37)]
- IC50 [1]: 98 pM

Binder: GGGUCCUGGAUAAGAGUUUCCGUCUCGUAUCCUGUUACCC (ssRNA, as 82(25) except dU25) [SEQ ID NO: 82(40)]
- IC50 [2]: 239 pM

Binder: GGGUCCUGAGUAAGAGUUUCCGUCUCAUACUCUGUUACCC (ssRNA, 2'-F C/U, dA, 2'-OH G) [SEQ ID NO: 85]
- IC50 [3]: < 300 pM

Binder: GGGUCCUGGAUAAGAGUUUCCGUCUCGUAUCCUGUUACCC (ssRNA, as 82(48) without 5' idT; PS between A12 and A13) [SEQ ID NO: 82(60)]
- IC50 [4]: 34 pM

Binder: GGGUCCUGUCUAAGAGUUUCCGUCUCGUAGACUGUUACCC (ssRNA, 2'-F C/U, dA, 2'-OH G) [SEQ ID NO: 111]
- IC50 [5]: 252 pM

Binder: GGGUCCUGGAUAAGAGTUUCCGUCUCGUAUCCTGUUACCC (ssRNA, as 82(25) except dT17,dT33,dU36) [SEQ ID NO: 163]
- IC50 [6]: 113 pM

Binder: GGGUCCUGGAUAAGAGUUUCCGUCUCGUAUCCUGUUACCC (ssRNA, as 82(25) except 2'-OMe A10) [SEQ ID NO: 82(45)]
- IC50 [7]: 37 pM

Binder: GGGUCCUGGAUAAGAGUUUCCGUCUCGUAUCCUGUUACCC (ssRNA, as 82(25) except dU36) [SEQ ID NO: 82(41)]
- IC50 [8]: 84 pM

Binder: GGGUCCUGGAUAAGAGUUUCCGUCUCGUAUCCUGUUACCC (ssRNA, as 82(25) except 2'-OMe A10,A15,A29,A37) [SEQ ID NO: 82(48)]
- IC50 [9]: 252 pM

Binder: GGGUCCUGGAUAAGAGTUUCCGUCUCGUAUCCTGUUACCC (ssRNA, as 82(25) except dU7,dT17,dT33) [SEQ ID NO: 164]
- IC50 [10]: 132 pM

B1: SEQ ID NO: 78(3) (ssRNA)
RNA: GGGUCCUGGCCAAGAGUUUCCGUCUCGUGGUCUGUUACCC
modifications: 2'-OMe G (G8,G34 2'-OH), dA, 2'-F C/U except 2'-OMe U4,C6,C10,C11,C21,U23,C26,U28,C32,U35,C38-40; 5',3' idT
- IC50 [11]: 45 pM

Binder: GGGUCCUGGAUAAGAGUUUCCGUCUCGUAUCCUGUUACCC (ssRNA, as 82(48) without 5' idT; PS between G34 and U35) [SEQ ID NO: 82(63)]
- IC50 [12]: 46 pM

B2: SEQ ID NO: 78(2) (ssRNA)
RNA: GGGUCCUGGCCAAGAGUUUCCGUCUCGUGGUCUGUUACCC
modifications: 2'-OMe G (G8,G34 2'-OH), dA, 2'-F C/U except 2'-OMe U4,C6,C21,U23,C26,U28,U31,C32,U35,C38-40; 5',3' idT
- IC50 [13]: 45 pM

Binder: GGGUCCUGGAUAAGAGTUUCCGUCUCGUAUCCTGUUACCC (ssRNA, as 82(25) except dT17,dT33,dU36, 2'-OMe A37) [SEQ ID NO: 165]
- IC50 [14]: 139 pM

Binder: GGGUCCUGUCUAAGAGUUUCCGUCUCGUAGACUGUUACCC (ssRNA, 2'-F C/U, dA, 2'-OH G) [SEQ ID NO: 115]
- binding result (NT-3 (neurotrophin-3)): no binding
- binding result (NT-4 (neurotrophin-4)): no binding
- IC50 [15]: 298 pM

Binder: GGGUCCUGCUGCGGAGUUUCCGUCUCGGUGGCUGUUACCC (ssRNA, 2'-OMe G (G8,G34 2'-OH), dA, 2'-F C/U; 5',3' idT) [SEQ ID NO: 62(1)]
- IC50 [16]: 490 pM

Binder: GGGUCCUGCUGCGUAGUUUCCUUCUGCGUGGUUGUUACCC (ssRNA, 2'-F C/U, dA, 2'-OH G) [SEQ ID NO: 86]
- IC50 [17]: 834 pM

Binder: GGGUCCUGUUCAAGAGUUUCCGUCUCGUGGACUGUUACCC (ssRNA, 2'-F C/U, dA, 2'-OH G) [SEQ ID NO: 112]
- binding result (NT-3 (neurotrophin-3)): no binding
- binding result (NT-4 (neurotrophin-4)): no binding
- IC50 [18]: 334 pM

Binder: GGGUCCUGACAAAGAGUUUCCGUCUCGUUGUCUGUUACCC (ssRNA, 2'-F C/U, dA, 2'-OH G) [SEQ ID NO: 114]
- binding result (NT-3 (neurotrophin-3)): no binding
- binding result (NT-4 (neurotrophin-4)): no binding
- IC50 [19]: 363 pM

Binder: GGGUCCUGUUGAAGAGUUUCCGUCUCGUCAACUGUUACCC (ssRNA, 2'-F C/U, dA, 2'-OH G) [SEQ ID NO: 117]
- binding result (NT-3 (neurotrophin-3)): no binding
- binding result (NT-4 (neurotrophin-4)): no binding
- IC50 [20]: 394 pM

Binder: GGGUCCUGUUCAAGAGUUUCCGUCUCGUGAACUGUUACCC (ssRNA, 2'-F C/U, dA, 2'-OH G) [SEQ ID NO: 116]
- binding result (NT-3 (neurotrophin-3)): no binding
- IC50 [21]: 411 pM
